Source: PMC9364601

Experiments:
[1] = molecular target: microtubules polymerized from tubulin purified from goat brain, Taxol-stabilised (goat)
[2] = molecular target: microtubules polymerized from tubulin purified from goat brain, Taxol-stabilised (goat); assay: single-molecule motility assay (TIRF); Taxol-stabilised MTs adsorbed on the coverslip, purified fluorescent motors in the motility mix; P12 buffer pH 6.8, BSA, 2 mM ATP, room temperature; run time and detachment rate computed from run length and velocity
[3] = molecular target: microtubules polymerized from tubulin purified from goat brain, Taxol-stabilised (goat); remark: listed apart in the source

| Molecule | Km for microtubules of the MT-stimulated ATPase (Michaelis-Menten fit; 10 nM motor, 1-80 µM MTs, BRB80, room temperature) [1] [µM] | detachment rate from the MT (koff) [2] [s⁻¹] | mean run time (average time spent on the MT) [2] [s] | microtubule affinity from the enzyme kinetics of the MT-stimulated ATPase, decrease compared to wild-type motors (times (decrease against wild type)) [3] |
| --- | --- | --- | --- | --- |
| KIF1A(1-393LZ)-mCit-Flag (from UniProt F1M4A4 1-393) (domain or fragment) | 7.03 | 0.23 | 4.38 | – |
| KIF1A R167C mutant motor, purified (domain or fragment) | – | – | – | 1.5 |
| KIF13A(1-411ΔP390)-mCit-Flag (domain or fragment) MSDTKVKVAVRVRPMNRRELELNTKCVVEMEGNQTVLHPPPSNTKQGERKPPKVFAFDYCFWSMDESNTTKYAGQEVVFKCLGEGILEKAFQGYNACIFAYGQTGSGKSFSMMGHAEQLGLIPRLCCALFKRISLEQNESQTFKVEVSYMEIYNEKVRDLLDPKGSRQSLKVREHKVLGPYVDGLSQLAVTSFEDIESLMSEGNKSRTVAATNMNEESSRSHAVFNIIITQTLYDLQSGNSGEKVSKVSLVDLAGSERVSKTGAAGERLKEGSNINKSLTTLGLVISSLADQAAGKGKSKFVPYRDSVLTWLLKDNLGGNSQTSMIATISPAADNYEETLSTLRYADRAKRIVNHAVVNEDPNAKVIRELREEVEKLREQLSQAEAMKAELKEKLEESEKLIKELTVTWE | 5.16 | 0.15 | 6.61 | – |

Continued, values first:

| Km for microtubules of the MT-stimulated ATPase (Michaelis-Menten fit; 10 nM motor, 1-80 µM MTs, BRB80, room temperature) [1] [µM] | detachment rate from the MT (koff) [2] [s⁻¹] | mean run time (average time spent on the MT) [2] [s] | microtubule affinity from the enzyme kinetics of the MT-stimulated ATPase, decrease compared to wild-type motors (times (decrease against wild type)) [3] | Molecule |
| --- | --- | --- | --- | --- |
| 10.2 | 0.72 | 1.39 | – | KHC(1–560)-mCit-Flag (from UniProt P56536 1-560) (domain or fragment) |
| 2.43 | 0.1 | 9.83 | – | KIF16B(1–400)-mCit-Flag (from UniProt Q96L93 1-400) (domain or fragment) |
| 4.23 | 0.12 | 8.06 | – | KIF13B(1-412ΔP391)-mCit-Flag (domain or fragment) MGDSKVKVAVRIRPMNRRETDLHTKCVVDVDANKVILNPVNTNLSKGDARGQPKVFAYDHCFWSMDESVKEKYAGQDIVFKCLGENILQNAFDGYNACIFAYGQTGSGKSYTMMGTADQPGLIPRLCSGLFERTQKEENEEQSFKVEVSYMEIYNEKVRDLLDPKGSRQTLKVREHSVLGPYVDGLSKLAVTSYKDIESLMSEGNKSRTVAATNMNEESSRSHAVFKITLTHTLYDVKSGTSGEKVGKLSLVDLAGSERATKTGAAGDRLKEGSNINKSLTTLGLVISALADQSAGKNKNKFVPYRDSVLTWLLKDSLGGNSKTAMVATVSPAADNYDETLSTLRYADRAKHIVNHAVVNEDPNARIIRDLREEVEKLREQLTKAEAMKSELKDRLEESEKLIQEMTVTWE |
